Results taken from paper PMC2978023 (Journal of immunology (Baltimore, Md. : 1950), 2008).

B1: plasmin (protein, UniProt P00747 20-580; P00747 581-810, looked up)
Plasmin heavy chain A: EPLDDYVNTQGASLFSVTKKQLGAGSIEECAAKCEEDEEFTCRAFQYHSKEQQCVIMAENRKSSIIIRMRDVVLFEKKVYLSECKTGNGKNYRGTMSKTKNGITCQKWSSTSPHRPRFSPATHPSEGLEENYCRNPDNDPQGPWCYTTDPEKRYDYCDILECEEECMHCSGENYDGKISKTMSGLECQAWDSQSPHAHGYIPSKFPNKNLKKNYCRNPDRELRPWCFTTDPNKRWELCDIPRCTTPPPSSGPTYQCLKGTGENYRGNVAVTVSGHTCQHWSAQTPHTHNRTPENFPCKNLDENYCRNPDGKRAPWCHTTNSQVRWEYCKIPSCDSSPVSTEQLAPTAPPELTPVVQDCYHGDGQSYRGTSSTTTTGKKCQSWSSMTPHRHQKTPENYPNAGLTMNYCRNPDADKGPWCFTTDPSVRWEYCNLKKCSGTEASVVAPPPVVLLPDVETPSEEDCMFGNGKGYRGKRATTVTGTPCQDWAAQEPHRHSIFTPETNPRAGLEKNYCRNPDGDVGGPWCYTTNPRKLYDYCDVPQCAAPSFDCGKPQVEPKKCPGR
Plasmin light chain B: VVGGCVAHPHSWPWQVSLRTRFGMHFCGGTLISPEWVLTAAHCLEKSPRPSSYKVILGAHQEVNLEPHVQEIEVSRLFLEPTRKDIALLKLSSPAVITDKVIPACLPSPNYVVADRTECFITGWGETQGTFGAGLLKEAQLPVIENKVCNRYEFLNGRVQSTELCAGHLAGGTDSCQGDSGGPLVCFEKDKYILQGVTSWGLGCARPNKPGVYVRVSRFVTWIEGVMRNN
modifications: Plasmin
B2: Fas ligand: promotes PMN death via interaction with its receptor on the cell surface (protein, UniProt P48023 130-281, looked up)
Tumor necrosis factor ligand …: QIGHPSPPPEKKELRKVAHLTGKSNSRSMPLEWEDTYGIVLLSGVKYKKGGLVINETGLYFVYSKVYFRGQSCNNLPLSHKVYMRNSKYPQDLVMMEGKMMSYCTTGQMWARSSYLGAVFNLTSADHLYVNVSELSLVNFEESQTFFGLYKL

Key:
human PMNs = settings: PMN; data not shown
monocytes = settings: PAR-1-dependent; ref [29]; cited from earlier work
PMN = settings: cited from earlier work

| Molecule | prosurvival/cytoprotective effect on PMN (in words) (human PMNs) | effect on TNF-α-induced apoptosis in monocytes (monocytes) | effect on PMN death (PMN) |
| --- | --- | --- | --- |
| B1 | did not exert a cytoprotective function | inhibits TNF-α-induced apoptosis in monocytes | – |
| B2 | – | – | promote PMN death |
